Assay results as given in patent publication US20260055183A1.

Target: triggering receptor expressed on myeloid cells 1 (TREM-1), human, on monocytes / PBMCs of healthy donors (human) (UniProt Q9NP99)
Experiment: cell-based or functional assay

Sequence of peptidoglycan-recognition-protein 1 (PGLYRP1) (O75594 22-196 limits assumed): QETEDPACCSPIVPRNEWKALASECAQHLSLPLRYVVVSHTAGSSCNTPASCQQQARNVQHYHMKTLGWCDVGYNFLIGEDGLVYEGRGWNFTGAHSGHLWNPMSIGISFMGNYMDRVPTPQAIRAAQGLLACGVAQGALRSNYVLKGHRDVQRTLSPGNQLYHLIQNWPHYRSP
Sequence of triggering receptor expressed on myeloid cells 1 (TREM-1), human, on monocytes / PBMCs of healthy donors (human) (Q9NP99 21-234 limits assumed): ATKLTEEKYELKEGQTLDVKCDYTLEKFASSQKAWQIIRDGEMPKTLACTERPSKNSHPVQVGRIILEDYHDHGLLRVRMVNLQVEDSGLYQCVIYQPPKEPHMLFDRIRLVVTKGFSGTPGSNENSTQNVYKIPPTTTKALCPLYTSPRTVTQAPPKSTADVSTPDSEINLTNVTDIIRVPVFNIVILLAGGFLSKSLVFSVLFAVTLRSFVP

Work on “peptidoglycan-recognition-protein 1 (PGLYRP1) (from UniProt O75594 22-196) (ligand)” yielded a Log2FC P + L vs P, ACOT7 mRNA in monocytes (log2 fold change) of 2.23, a Log2FC P + L vs P, CD52 mRNA in monocytes (log2 fold change) of 2.28 and a Log2FC P + L vs P, CD55 mRNA in monocytes (log2 fold change) of 2.39. It also gave a Log2FC P + L vs P, CDKN1A mRNA in monocytes (log2 fold change) of 2.3, a Log2FC P + L vs P, CHI3L1 mRNA in monocytes (log2 fold change) of 5.62 and a Log2FC P + L vs P, CISH mRNA in monocytes (log2 fold change) of 3.28. It also gave a Log2FC P + L vs P, CLEC12A mRNA in monocytes (log2 fold change) of 2.94, a Log2FC P + L vs P, DHRS9 mRNA in monocytes (log2 fold change) of 3.22 and a Log2FC P + L vs P, EHD1 mRNA in monocytes (log2 fold change) of 3.37. It also gave a Log2FC P + L vs P, FAM129A mRNA in monocytes (log2 fold change) of 2.31, a Log2FC P + L vs P, GALNT6 mRNA in monocytes (log2 fold change) of 2.09 and a Log2FC P + L vs P, IFNLR1 mRNA in monocytes (log2 fold change) of 3.07. The Log2FC P + L vs P, MFSD12 mRNA in monocytes (log2 fold change) was 3.07, the Log2FC P + L vs P, MTMR11 mRNA in monocytes (log2 fold change) was 2.58 and the Log2FC P + L vs P, NAMPT mRNA in monocytes (log2 fold change) was 3.47. For the same substance, the Log2FC P + L vs P, PIM2 mRNA in monocytes (log2 fold change) was 2.71, the Log2FC P + L vs P, PLK3 mRNA in monocytes (log2 fold change) was 2.67 and the Log2FC P + L vs P, SLC27A3 mRNA in monocytes (log2 fold change) was 2.74. It also gave a Log2FC P + L vs P, STARD4 mRNA in monocytes (log2 fold change) of 2.56, a Log2Fc.P + L vs P, CCL1 mRNA in monocytes (log2 fold change) of 8.39 and a Log2Fc.P + L vs P, CCL20 mRNA in monocytes (log2 fold change) of 8.73. It also gave a Log2Fc.P + L vs P, CXCL3 mRNA in monocytes (log2 fold change) of 7.21, a Log2Fc.P + L vs P, F3 mRNA in monocytes (log2 fold change) of 7.55 and a Log2Fc.P + L vs P, IL6 mRNA in monocytes (log2 fold change) of 9.16. It also gave a Log2Fc.P + L vs P, IL23A mRNA in monocytes (log2 fold change) of 6.96, a Log2Fc.P + L vs P, IL24 mRNA in monocytes (log2 fold change) of 6.66 and a Log2Fc.P + L vs P, IL36G mRNA in monocytes (log2 fold change) of 7.91. The Log2Fc.P + L vs P, ILIA (Interleukin 1, alpha) mRNA in monocytes (log2 fold change) was 6.86, the Log2Fc.P + L vs P, ILIRN (Interleukin 1 receptor antagonist) mRNA in monocytes (log2 fold change) was 7.28 and the Log2Fc.P + L vs P, INHBA mRNA in monocytes (log2 fold change) was 8.04. It also gave a Log2Fc.P + L vs P, MMP1 mRNA in monocytes (log2 fold change) of 9.31, a Log2Fc.P + L vs P, MMP7 mRNA in monocytes (log2 fold change) of 8.32 and a Log2Fc.P + L vs P, MMP10 mRNA in monocytes (log2 fold change) of 8.47. The Log2Fc.P + L vs P, OCSTAMP mRNA in monocytes (log2 fold change) was 7.62, the Log2Fc.P + L vs P, PTGS2 mRNA in monocytes (log2 fold change) was 8.32 and the Log2Fc.P + L vs P, RGS16 mRNA in monocytes (log2 fold change) was 7.52. The Log2Fc.P + L vs P, SCG5 mRNA in monocytes (log2 fold change) was 8.09, the Log2Fc.P + L vs P, TFPI2 mRNA in monocytes (log2 fold change) was 7.57 and the Log2Fc.P + L vs P, TNFSF15 mRNA in monocytes (log2 fold change) was 8.65.
